Experimental data as given in article PMC6265244, “A synthetic microbial biosensor for high-throughput screening of lactam biocatalysts” (Nature Communications, 2018).

Key:
CF3HBD = target: T1, CF3HBD (Citrobacter freundii, UniProt A0A0D7LY80); assay: X-ray crystal structure, […] Å; assay type: binding; details: 5 mM NAD+, 3.2 M sodium acetate pH 6.5, 20 °C
T1 construct: gene AI2602V1_2506; tetramer in the asymmetric unit (two subunits NAD+-free)
T1 sequence (A0A0D7LY80 1-256): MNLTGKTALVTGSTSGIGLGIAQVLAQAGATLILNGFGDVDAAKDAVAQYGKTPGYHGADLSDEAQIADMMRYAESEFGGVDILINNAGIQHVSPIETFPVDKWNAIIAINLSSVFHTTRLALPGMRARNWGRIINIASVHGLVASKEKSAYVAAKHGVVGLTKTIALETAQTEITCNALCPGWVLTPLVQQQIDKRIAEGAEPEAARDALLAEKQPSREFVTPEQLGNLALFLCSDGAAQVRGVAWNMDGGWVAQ

SM3HBD = target: T2, SM3HBD (Serratia marcescens, UniProt A0A2F0PAS1); assay: cyclization assay with purified enzyme, ε-caprolactam formed; assay type: biochemical
T2 construct: gene DMW51_14370
T2 sequence (A0A2F0PAS1 1-256): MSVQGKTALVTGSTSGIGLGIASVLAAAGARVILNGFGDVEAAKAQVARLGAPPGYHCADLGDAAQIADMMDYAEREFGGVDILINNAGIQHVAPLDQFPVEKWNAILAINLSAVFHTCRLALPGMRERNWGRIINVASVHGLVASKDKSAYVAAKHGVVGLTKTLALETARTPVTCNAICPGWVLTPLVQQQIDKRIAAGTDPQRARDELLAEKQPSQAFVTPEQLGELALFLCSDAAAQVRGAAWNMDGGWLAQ

[1] = target: 3-hydroxybutyrate dehydrogenase from Citrobacter freundii (CF3HBD) (Citrobacter freundii); assay: crystal structure; hanging-drop vapor diffusion at 20 °C, protein with 5 mM NAD+, 3.2 M sodium acetate pH 6.5; space group P2_(1), four molecules in an asymmetric unit
[2] = substrate: NCCCCCC(=O)O; assay: LC-MS of caprolactam formed, Michaelis-Menten fit; assay type: biochemical, Citrobacter freundii; details: 50 mM HEPES pH 7.5, 35 °C, 10 min, no cofactor or metal, cyclization to ε-caprolactam

Molecule: NC(=O)c1ccc[n+]([C@@H]2O[C@H](COP(=O)(O)OP(=O)(O)OC[C@H]3O[C@@H](n4cnc5c(N)ncnc54)[C@H](O)[C@@H]3O)[C@@H](O)[C@H]2O)c1 [NAD^+]
- X-ray crystal structure, 2.29 Å (CF3HBD): we determined the crystal structure of CF3HBD in complex with NAD^+

Molecule: NCCCCCC(=O)O [6-aminocaproic acid]
- cyclization assay with purified enzyme, ε-caprolactam formed (SM3HBD): both enzymes showed cyclization activity towards 6-ACA to produce ε-caprolactam

Molecule: 3-hydroxybutyrate dehydrogenase from Citrobacter freundii (CF3HBD) (enzyme)
- stoichiometry N [1]: 4

B1: CF3HBD (Citrobacter freundii) (protein)
chain: MNLTGKTALVTGSTSGIGLGIAQVLAQAGATLILNGFGDVDAAKDAVAQYGKTPGYHGADLSDEAQIADMMRYAESEFGGVDILINNAGIQHVSPIETFPVDKWNAIIAINLSSVFHTTRLALPGMRARNWGRIINIASVHGLVASKEKSAYVAAKHGVVGLTKTIALETAQTEITCNALCPGWVLTPLVQQQIDKRIAEGAEPEAARDALLAEKQPSREFVTPEQLGNLALFLCSDGAAQVRGVAWNMDGGWVAQ
notes: tetramer in the asymmetric unit (two subunits NAD+-free)
- Km [2]: 3.3 ± 0.3 mM
- kcat [2]: 0.0012 ± 3.33e-05 s⁻¹
- kcat/Km [2]: 0.363 ± 0.03 M⁻¹ s⁻¹
